Results as given in article PMC5919072.
Values belong to the substance of their own block, whether it stands above or below them.

Tests used:
Test in all cases: SEC-MALS; static light scattering (MiniDAWN TREOS, three angles) inline with size exclusion on Superdex S75 10/300; 100 mM Na-phosphate pH 7.4, 400 mM NaCl; PfMDH-WT injected at 1.0 mg/ml
[1] = biological target: PfMDH-E18W, His6-tagged (Plasmodium falciparum)
[2] = biological target: PfMDH-E18Q, His6-tagged (Plasmodium falciparum)
[3] = biological target: Wild-type malate dehydrogenase from Plasmodium falciparum (PfMDH-WT), His6-tagged (Plasmodium falciparum)
[4] = biological target: PfMDH-V190W, His6-tagged (Plasmodium falciparum)

Substance: PfMDH-E18W, His6-tagged (enzyme)
stoichiometry N [1]: 2

Substance: PfMDH-E18Q, His6-tagged (enzyme)
stoichiometry N [2]: 4

stoichiometry N [3]: 4
Substance: Wild-type malate dehydrogenase from Plasmodium falciparum (PfMDH-WT), His6-tagged (enzyme)

Substance: PfMDH-V190W, His6-tagged (enzyme)
stoichiometry N [4]: 2
